Experimental findings from PMC8616923, “Initiation of cytosolic plant purine nucleotide catabolism involves a monospecific xanthosine monophosphate phosphatase” (Nature Communications, 2021) are described below.

Series [1] deals with T1, XMPP (C-terminal His-tagged full-length XMPP) (Arabidopsis thaliana, UniProt F4ISS8).
T1 construct: gene At2g32150; full-length (13 residues beyond Ser250), C-terminal His tag, expressed in E. coli, HisTrap purified; monomer
T1 sequence (F4ISS8 1-263): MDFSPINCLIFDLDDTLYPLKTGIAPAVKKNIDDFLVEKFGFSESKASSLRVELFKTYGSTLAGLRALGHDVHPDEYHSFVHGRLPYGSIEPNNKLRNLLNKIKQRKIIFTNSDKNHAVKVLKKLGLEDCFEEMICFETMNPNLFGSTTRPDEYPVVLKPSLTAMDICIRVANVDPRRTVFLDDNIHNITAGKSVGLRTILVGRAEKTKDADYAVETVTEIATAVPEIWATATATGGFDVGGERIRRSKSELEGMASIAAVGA
The series is described as follows: EnzChek phosphate assay (MESG / purine nucleoside phosphorylase), initial rates. Format: biochemical. As to conditions: 30 °C, pH 7.5 (50 mM Tris), 1.25 mM MgCl2.

Series [2] deals with T1, XMPP (C-terminal His-tagged full-length XMPP). Described as above. Format: biochemical. As to conditions: 30 °C, pH 7.5 (50 mM Tris), 1.25 mM MgCl2. The source holds these as a separate data set.
Series [3] has as its target T2, XMPP (XMPP-HAStrep; SDTL1) (Arabidopsis thaliana, UniProt F4ISS8).
T2 construct: gene At2g32150; monomer
T2 sequence (F4ISS8 1-263): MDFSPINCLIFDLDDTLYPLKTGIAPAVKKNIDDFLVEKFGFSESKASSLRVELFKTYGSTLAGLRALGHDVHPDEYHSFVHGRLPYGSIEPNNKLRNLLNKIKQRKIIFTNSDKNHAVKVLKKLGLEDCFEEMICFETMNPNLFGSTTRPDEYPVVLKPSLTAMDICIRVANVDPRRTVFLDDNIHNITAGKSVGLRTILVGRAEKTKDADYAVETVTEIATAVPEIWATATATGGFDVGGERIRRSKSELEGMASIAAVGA
The series is described as follows: inhibition of XMP hydrolysis (phosphate assay). As to conditions: 10 μM XMP as substrate; 22 °C. Format: biochemical.

Substrate in the series “purified protein”: O=c1[nH]c(=O)c2ncn([C@@H]3O[C@H](COP(=O)(O)O)[C@@H](O)[C@H]3O)c2[nH]1
Nature of the series: purified protein. Format: biochemical, Arabidopsis thaliana. The following applies: 22 °C.

Substrate in series [4]: O=c1[nH]c(=O)c2ncn([C@@H]3O[C@H](COP(=O)(O)O)[C@@H](O)[C@H]3O)c2[nH]1
The series is described as follows: EnzChek phosphate assay (MESG / purine nucleoside phosphorylase), initial rates. It is filed as biochemical, Arabidopsis thaliana. The following applies: 30 °C, pH 7.5 (50 mM Tris), 1.25 mM MgCl2. How it is done: EnzChek phosphate assay (MESG / purine nucleoside phosphorylase), initial rates on XMPP (C-terminal His-tagged full-length XMPP) | enzymatic activities and kinetic constants of XMPP variants were determined

Regarding `O=c1[nH]c(=O)c2ncn([C@@H]3O[C@H](COP(=O)(O)O)[C@@H](O)[C@H]3O)c2[nH]1` [XMP], the KM entry in series [1] is “hydrophobic residues Val28, Ile31, and Phe55 that shape the xanthine-binding pocket”; in series [2], “direct and indirect hydrogen bonds to Thr61, Lys29, and Arg51”.
Turning to `O=c1[nH]c(=O)c2ncn([C@@H]3O[C@H](CO)[C@@H](O)[C@H]3O)c2[nH]1` [xanthosine], the inhibition result in series [3] is on record as “For XMPP, we confirmed an inhibition by xanthosine”.

B1: XMPP (XMPP-HAStrep; SDTL1) (Arabidopsis thaliana) (protein)
chain: MDFSPINCLIFDLDDTLYPLKTGIAPAVKKNIDDFLVEKFGFSESKASSLRVELFKTYGSTLAGLRALGHDVHPDEYHSFVHGRLPYGSIEPNNKLRNLLNKIKQRKIIFTNSDKNHAVKVLKKLGLEDCFEEMICFETMNPNLFGSTTRPDEYPVVLKPSLTAMDICIRVANVDPRRTVFLDDNIHNITAGKSVGLRTILVGRAEKTKDADYAVETVTEIATAVPEIWATATATGGFDVGGERIRRSKSELEGMASIAAVGA
notes: monomer
As to B1, in the series “purified protein”, the Km amounted to 3.9 ± 0.2 µM and the kcat is 9.2 ± 0.1 s⁻¹.

B2: XMPP (C-terminal His-tagged full-length XMPP) (Arabidopsis thaliana) (protein)
chain: MDFSPINCLIFDLDDTLYPLKTGIAPAVKKNIDDFLVEKFGFSESKASSLRVELFKTYGSTLAGLRALGHDVHPDEYHSFVHGRLPYGSIEPNNKLRNLLNKIKQRKIIFTNSDKNHAVKVLKKLGLEDCFEEMICFETMNPNLFGSTTRPDEYPVVLKPSLTAMDICIRVANVDPRRTVFLDDNIHNITAGKSVGLRTILVGRAEKTKDADYAVETVTEIATAVPEIWATATATGGFDVGGERIRRSKSELEGMASIAAVGA
notes: full-length (13 residues beyond Ser250), C-terminal His tag, expressed in E. coli, HisTrap purified; monomer
Consider B2, for which, in series [4], the Km is 8.1(0.8) μM and the kcat was 16.5(0.33) s^-1.

For orientation: Km means the concentration of substrate that gives half-maximal velocity. By kcat is commonly meant the number of substrate molecules converted per active site and unit of time at saturation.
